According to the supplement of paper PMC7125110:
± gives the standard error. For some of these results: This sample holds only a part of the variants without activity.

B1: glmS ribozyme (parent)
chain: AUAAAAGCGCCAGAACUACAGAAAUGUAGUUGACGAGGAGGAGGUUUAUCGAAUUUUCGGCGGAUGCCUCCAAA

Experiments:
Settings in all cases: with glucosamine-6-phosphate
[1] = variants of: B1; assay: kcat; higher = faster cleavage; RNA array
In short: (§1)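 kobs was derived by fitting per-tile medians to one- or two-exponential decays after normalising signals to baseline and to non-cleaving reference variants. Those signals came from barcoded ribozyme variants transcribed in situ by E. coli RNA polymerase on sequenced MiSeq chips, followed through a hybridised Cy3 probe at 37 °C and imaged over ~14 h. Glucosamine-6-phosphate (40 μM to 10 mM) in HEPES/KCl/Mg(OAc)2 buffer was flowed in. Weighted Michaelis–Menten fits across concentrations then gave kcat and KM.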

[2] = variants of: B1; assay: self-cleavage kobs at 160 uM GlcN6P; higher = faster cleavage; RNA array
In short: as §1

[3] = variants of: B1; assay: self-cleavage kobs at 640 uM GlcN6P; higher = faster cleavage; RNA array
In short: as §1

[4] = variants of: B1; assay: self-cleavage kobs at 2500 uM GlcN6P; higher = faster cleavage; RNA array
In short: as §1

[5] = variants of: B1; assay: self-cleavage kobs at 40 uM GlcN6P; higher = faster cleavage; RNA array
In short: as §1

[6] = variants of: B1; assay: self-cleavage kobs at 10000 uM GlcN6P; higher = faster cleavage; RNA array
In short: as §1

[7] = variants of: B1; assay: KM; higher = weaker cofactor use; RNA array
In short: as §1

Variant	kcat [1] [s⁻¹]	self-cleavage kobs at 160 uM GlcN6P [2] [s⁻¹]	self-cleavage kobs at 640 uM GlcN6P [3] [s⁻¹]	self-cleavage kobs at 2500 uM GlcN6P [4] [s⁻¹]	self-cleavage kobs at 40 uM GlcN6P [5] [s⁻¹]	self-cleavage kobs at 10000 uM GlcN6P [6] [s⁻¹]	KM [7] [µM]
A53U C68A	5.43e-05 ± 1.6e-05	3.62e-05 ± 1e-05	6.67e-05 ± 8.3e-06	6.54e-05 ± 9.8e-06			
C50G U57A	7.3e-05 ± 1.7e-05	8.31e-05 ± 1.4e-05	5.84e-05 ± 1.6e-05	6.05e-05 ± 2.7e-05	3.58e-05 ± 1.6e-05		
U57A G60U	< 1e-05	< 1e-05	< 1e-05		< 1e-05	< 1e-05	
A52U A53G	0.000144 ± 7.6e-06		3.11e-05 ± 1.3e-05	6.31e-05 ± 9.5e-06	< 1e-05	0.000111 ± 1e-05	2980 ± 430
U56C A64G	0.000167 ± 1.1e-05			8.52e-05 ± 2.8e-05		0.000131 ± 2e-05	2690 ± 560
C50G U54G	4.74e-05 ± 1.5e-05	7.22e-05 ± 1.2e-05	4.18e-05 ± 1.1e-05	3.85e-05 ± 1.5e-05			
U57A C58G	7.04e-05 ± 3.8e-06			2.42e-05 ± 1.1e-05		4.8e-05 ± 1.2e-05	4690 ± 580
U49C A53U	< 1e-05						
G59U U69A	1.61e-05 ± 5.1e-06						
G62A U69A	3.46e-05 ± 8.1e-06						
G62A U69G	3.25e-05 ± 8.9e-06		3.57e-05 ± 1.7e-05	3.47e-05 ± 1.6e-05			
G66C C70G	0.000116 ± 4e-06	3.35e-05 ± 1.2e-05	6.38e-05 ± 8.2e-06	9.88e-05 ± 1.2e-05		0.000111 ± 1.5e-05	490 ± 56
A48U U69C	0.000248 ± 8.5e-06		7.15e-05 ± 1e-05	0.000147 ± 1.8e-05		0.000215 ± 2.7e-05	1640 ± 120
A64G G66U	0.00159 ± 7.8e-05	0.000178 ± 5.7e-05	0.000588 ± 0.00016	0.00102 ± 0.00034		0.00143 ± 0.0003	1210 ± 120
U56G A64G	0.0177 ± 0.0051	0.000896 ± 0.00017	0.00313 ± 0.00055	0.00817 ± 0.0015	0.000369 ± 6.8e-05	0.0156 ± 0.0037	2680 ± 1000
G66U C68A	6.39e-05 ± 1.2e-05	3.61e-05 ± 1.6e-05	9.21e-05 ± 2.2e-05	5.77e-05 ± 8.7e-06			
U54G C68U C70A	6.79e-05 ± 7.7e-06					6.28e-05 ± 1.4e-05	

Variant	kcat [1] [s⁻¹]	self-cleavage kobs at 160 uM GlcN6P [2] [s⁻¹]	self-cleavage kobs at 640 uM GlcN6P [3] [s⁻¹]	self-cleavage kobs at 2500 uM GlcN6P [4] [s⁻¹]	self-cleavage kobs at 40 uM GlcN6P [5] [s⁻¹]	self-cleavage kobs at 10000 uM GlcN6P [6] [s⁻¹]	KM [7] [µM]
A52C C68A	2.96e-05 ± 7.8e-06		3.82e-05 ± 1.2e-05	3.05e-05 ± 1.2e-05			
U56G G60A	2.37e-05 ± 6.7e-07				< 1e-05	2.25e-05 ± 1.1e-05	623 ± 130
A52G	0.00319 ± 0.00046	0.000104 ± 3.3e-06	0.000385 ± 9.1e-06	0.00127 ± 5.6e-05	3.36e-05 ± 1e-06	0.0022 ± 6.2e-05	4410 ± 790
A52C	2.8e-05 ± 8.9e-07	< 1e-05	1.03e-05 ± 3.3e-06	2.17e-05 ± 1.5e-06	< 1e-05	2.56e-05 ± 1.3e-06	835 ± 150
A52U	0.000465 ± 1.7e-05	2.13e-05 ± 1.9e-06	8.16e-05 ± 1.8e-06	0.000223 ± 4.8e-06		0.000355 ± 5.5e-06	2960 ± 200
A53U U57C	0.000173 ± 5.9e-06			0.000115 ± 2.1e-05		0.000151 ± 1.8e-05	1360 ± 210
U54C C68A	2.49e-05 ± 6.3e-06				< 1e-05		
C61U C67A	1.1e-05 ± 1.5e-06						
G51A U69G	5.93e-05 ± 1.1e-05	4.53e-05 ± 1.5e-05	6.08e-05 ± 1.6e-05	5.96e-05 ± 1.5e-05			
A64G C70G	5.51e-05 ± 2.1e-06		4.33e-05 ± 1.6e-05		< 1e-05	5.41e-05 ± 8.6e-06	224 ± 79
C58G G66U	1.05e-05 ± 2.2e-06	< 1e-05					
C50G G51A G59U C70G	0.000102 ± 2.5e-05	9.16e-05 ± 3.2e-05	0.000132 ± 2.9e-05	7.99e-05 ± 2e-05			
A53U U56C C71U	0.00121 ± 0.00019	4.8e-05 ± 1.3e-05		0.000406 ± 9.1e-05		0.000903 ± 0.0002	4240 ± 1000
A53U A64C	8.67e-05 ± 2.2e-05			9.3e-05 ± 1.6e-05		7.17e-05 ± 1.1e-05	
U56G C58U	0.000147 ± 7.7e-06			4.08e-05 ± 8.6e-06		9.06e-05 ± 8e-06	6310 ± 710
A52G C68U	0.000874 ± 0.00036	9.18e-05 ± 1.1e-05	0.00015 ± 1.7e-05	0.000377 ± 4e-05	2.35e-05 ± 7.7e-06	0.000858 ± 9.2e-05	
A52G C68G	5.61e-05 ± 9.7e-06		6.55e-05 ± 1.4e-05	7.16e-05 ± 1.2e-05		4.28e-05 ± 8.7e-06	
